In paper PMC9654404, “Functional Characterization and Screening of Promiscuous Kinases and Isopentenyl Phosphate Kinases for the Synthesis of DMAPP via a One-Pot Enzymatic Cascade” (International Journal of Molecular Sciences, 2022) one finds Km data, which are given here for 5 proteins.

Substrate in data set [1]: CC(C)=CCOP(=O)(O)O
The data set is described as follows: purified protein. The conditions noted are these: ATP co-substrate, 2 mM MgCl2, 50 mM buffer, DMAP made enzymatically with SfPK, apparent Km.

Substrate in data set [2]: CC(C)=CCO
The data set is described as follows: purified protein. The following applies: ATP co-substrate, 2 mM MgCl2, 50 mM buffer, optimal conditions (optimum pH 7.5, 30 °C), apparent Km, 30.0 °C.

Substrate in data set [3]: CC(C)=CCO
The data set is described as follows: ADP formation, ADP colorimetric/fluorometric assay kit, Michaelis-Menten fit. Type of data set: biochemical, Escherichia coli. The conditions noted are these: ATP co-substrate, 2 mM MgCl2, 50 mM buffer, optimal conditions (optimum pH 5.5, 50 °C), apparent Km.

Substrate in data set [4]: CC(C)=CCO
Described as above. Type of data set: biochemical, Shigella flexneri. The following applies: ATP co-substrate, 2 mM MgCl2, 50 mM buffer, optimal conditions (optimum pH 9.0, 55 °C), apparent Km.

B1: MtIPK (Methanolobus tindarius isopentenyl phosphate kinase) (Methanolobus tindarius DSM 2278) (protein)
chain: MDNNNITILKIGGSVITDKSADDGTARLSEIERIAAEISGFEGKLIIVHGAGSFGHPQVKRFGLTGKFDHEGSIITHMSVRKLNTMVVETLNSAGINALPVHPMACAISSNSRIKSMFREQIEEMLANGFVPVLHGDMVMDTDLGTSVLSGDQIVPYLAIQMKASRIGIGSAEEGVLDDKGGVIPLINNENFDEIKAYLSGSANTDVTGGMLGKVLELLELSEQSNSTSYIFNAGNTGNISDFLSGKNIGTAIGAGTI
Turning to B1, in “purified protein [1]” (optimal conditions (optimum pH 7.5, 35 °C), 35.0 °C), the Michaelis constant (Km) turned out to be 65 µM.

B2: ScPK (Saccharomyces cerevisiae promiscuous kinase) (Saccharomyces cerevisiae S288C) (protein)
chain: MVQESRPGSVRSYSVGYQARSRSSSQRRHSLTRQRSSQRLIRTISIESDVSNITDDDDLRAVNEGVAGVQLDVSETANKGPRRASATDVTDSLGSTSSEYIEIPFVKETLDASLPSDYLKQDILNLIQSLKISKWYNNKKIQPVAQDMNLVKISGAMTNAIFKVEYPKLPSLLLRIYGPNIDNIIDREYELQILARLSLKNIGPSLYGCFVNGRFEQFLENSKTLTKDDIRNWKNSQRIARRMKELHVGVPLLSSERKNGSACWQKINQWLRTIEKVDQWVGDPKNIENSLLCENWSKFMDIVDRYHKWLISQEQGIEQVNKNLIFCHNDAQYGNLLFTAPVMNTPSLYTAPSSTSLTSQSSSLFPSSSNVIVDDIINPPKQEQSQDSKLVVIDFEYAGANPAAYDLANHLSEWMYDYNNAKAPHQCHADRYPDKEQVLNFLYSYVSHLRGGAKEPIDEEVQRLYKSIIQWRPTVQLFWSLWAILQSGKLEKKEASTAITREEIGPNGKKYIIKTEPESPEEDFVENDDEPEAGVSIDTFDYMAYGRDKIAVFWGDLIGLGIITEEECKNFSSFKFLDTSYL
Consider B2, for which, in the data set “purified protein [2]”, the Km amounted to 1250 µM.

B3: EcPK (Escherichia coli promiscuous kinase) (Escherichia coli K-12) (protein)
chain: MQVDLLGSAQSAHALHLFHQHSPLVHCMTNDVVQTFTANTLLALGASPAMVIETEEASQFAAIASALLINVGTLTQPRAQAMRAAVEQAKSSQTPWTLDPVAVGALDYRRHFCHELLSFKPAAIRGNASEIMALAGIANGGRGVDTTDAAANAIPAAQTLARETGAIVVVTGEMDYVTDGHRIIGIHGGDPLMTKVVGTGCALSAVVAACCALPGDTLENVASACHWMKQAGERAVARSEGPGSFVPHFLDALWQLTQEVQA
In the case of B3, the Michaelis-Menten constant (Km) in data set [3] was found to be 930 µM.

B4: SfPK (Shigella flexneri promiscuous kinase) (Shigella flexneri) (protein)
chain: SIPPGNDVTTKPDLYYLTNDNAIDSLALLPPPPQIGSIAFLNDQAMYEKGRLLRNTERGKLAAEDANLSSGGVANVFSAAFGSPITAKDSPELHKLLTNMIEDAGDLATRSAKEYYMRIRPFAFYGVSTCNTKEQDTLSRNGSYPSGHTSIGWATALVLSEINPARQDTILKRGYELGDSRVICGYHWQSDVDAARIVGSAIVATLHSNPVFQAQLQKAKDEFANNQKK
For the protein B4, the Km in data set [4] turned out to be 16 µM.

B5: MthIPK (Methanothermobacter thermautotrophicus isopentenyl phosphate kinase) (Methanothermobacter thermautotrophicus str. Delta H) (protein)
chain: MIILKLGGSVITRKDSEEPAIDRDNLERIASEIGNASPSSLMIVHGAGSFGHPFAGEYRIGSEIENEEDLRRRRFGFALTQNWVKKLNSHVCDALLAEGIPAVSMQPSAFIRAHAGRISHADISLIRSYLEEGMVPVVYGDVVLDSDRRLKFSVISGDQLINHFSLRLMPERVILGTDVDGVYTRNPKKHPDARLLDVIGSLDDLESLDGTLNTDVTGGMVGKIRELLLLAEKGVESEIINAAVPGNIERALLGEEVRGTRITGKH
Take B5: the Michaelis constant (Km) in the data set “purified protein [1]” (optimal conditions (optimum pH 7.5, 30 °C), 30.0 °C) was 116 µM.
